# Laboratory results published in the DeepSol protein solubility set.
# Test: soluble on expression in E. coli; label from the status in PepcDB or PDB records
row,Sequence,soluble on expression in E. coli
1,MSLTGTSAIENVDSGNEESMIYQQVGDQTKVLTENDKYLVKCINSFNAEQLPIPSHVPFYSTIDGVNKQCSYNDNENLYVWNFINSKWDDSNYCKIPLNTDSSSSVNALPKSVFILPTNYDTDAEMLGLENSNSSNGIVGGVILVENTADATYLVYYEDMRSINHLSTSISKNMAHLLDLKLHSEEKVTLMLNSEPAGLVLATTEGRLMFITIRETNGKPCLTLKQQLIRPKGSGPLAFLSLFSSSNEIISLRNGPIIGKGERIVYVLTRNGRFQVWKLSVASKCVKMMDTNFYDSILDDLVELYPFAQGSLKILDTHPITNQPFSPQVVLTQISSSDETNFILSTIILDEQTNSFTIFSTYRLNTYIMKGNSALAKPKLCVPSSLQSATSKYFDLFIVFDKAVVITQTSSKLDSTYTLKRKWEDIISFNKEIQILAESNDASTVYLLTKGMGIISIIPKKERGETAYEESFVKSHLDQAIYFSSSSSNPVEFNLPGGLHLEQDEVENDLKTASEEILLSSSKYIPPLTDNIEKHLSLRLVYFRNLISFVKDNFAFSISPSKKLDIIENFELLNCFHKFNNFISSSNFELKSFWDRTLEANGNINEIELAVEKIHRFPDLFSTYLNTIIKELPSKSYTFKLTLADLIIETIYDAILEEGEKKLRYEFLSLDPLELNTHLPWFISIDILDSINQLFFDLKFSLEGQEKNANTQLLVIVKTLYYLFNQVRLFFLKENNMNDVSAQDFMKKCDQLYENNHLAWNQTLCELGLNEDSLEISEFYHDFVSLVETLDTLEAVESKALYEEYFARFGEQFAHTLFEYYVKKSKLQDLFYRFPEQQEFLVSFFKKYPQYGRVSWIFSIINYDYASAAATLYDITSGDRASAMTLESAQLYLNIAKLSTLAAHENHANVNLLGALKRIQANLDVVDGGKDLVEKLKRVDGAPSHLQANYKGTEFEKLFDLLVKKVTNGTMLQFVEVVILYSLIDDKECLYHALKLLAIDGDILELELKKFLISLIWRRSILFDIQNAYDTTSEDSTLHFVLKQYLEDELFRANCPLPTVGVLTEKTMFTESLLSSLFSNYELDTKKLQDILEKEYNTVESTAVDIEKRIIETISSLDKANDNSYTVNYHDLTIEYQNEGHHHHHH,soluble
2,MSLTHLFYLTRGAPLSLKENYYPWLKAGSFFPDALYSCAPSNKDWSDFAEFTHWPNFLMIAVSYWQQKYGQNDRLRGTHGSLALKSFLIGVFTHQIVDVSWHSLVTDYRMHGLLRVLSETEFDGDIETAHTFLDVMGEFLTLNNVIRDSNNNENWDFLTRSDWKLPREEDLMEIIRNAGLSKEKLSYAELEFCVKRGMAAAISEGYLFRSQRNQLLTNIYSTSPRANDLILNHWLGGQSNLVAMLQRCVPFFETLFHDENTNEAQAEELRLCANLPPVSQKRINARPLVSSLKARKGNSHIVVSPMKSFSDFGTSLTMGKFREDNKDYLAVSAPLEDTVGAIYIVPWDILTVARKEDFSILQPITAMYGSKVGTYKASDVDYLLVSQPGTCTIDFYFKGVKILTIKDETTEEAHQLQFAVTGNFYDDKIPDLVVSSPSYGANETGIATFIPGSSIISYLTNSDKYQVVDISTFKGVINLDGYPMKIPFQHFGATIQISDTTDKQKLIYITCQSLGTVFVYSSNDLHDLSIPIYYITKNGVIPAKDSDHVEWHIIPSKEHGMFGAAIYSWNFEGMSFVAVSQPMFDTVFIYIEKSGQIEFFLKLVLKIKTKSDSIPDEFGSSLLFNDEEKKLYVSSPGSFDARGSIWKISMDELLKAGNDPKRKTLLINNLRHLMLINPDKSSKGVSNFGNSMILGPQNHLIVGIPQYGYGNFDHMQLTGRILVLEGHHHHHH,not soluble
3,MSLTHVIWDMGETLNTVPNTRYDHHPLDTYPEVVLRKNAKETLEKVKQLGFKQAILSNTATSDTEVIKRVLTNFGIIDYFDFIYASNSELQPGKMEKPDKTIFDFTLNALQIDKTEAVMVGNTFESDIIGANRAGIHAIWLQNPEVCLQDERLPLVAPPFVIPVWDLADVPEALLLLKKISEGHHHHHH,soluble
4,MSLTIYGVYRSRATRTLWLAAELGIEFKHVPVIQARRLADPLATDAPLNTLSPAFLAVNPMGTIPCIEDDGMVLYESMAINLYLARKYGGPLAPVDLKEDAAMLQWSFFAATEIETNSLKISSAIAEGLAESDAGKAVIDVAARLLKRPLRVLEQHLATHDYLVGDRFTVADLNVAEIVRYAQGHQPLFDAHPALKAWLARCQARTAFKSMWDSRTAEGHHHHHH,soluble
5,MSLTKEEMRNAILDIFQSNPQSVMNYKQVSHLMGVEAAPQKLMVNSLMEDMAVDDILHEIERGRYRYNALGLIVIGTFERRFNGRNSFIPEGGGTPIFIAERNSAHAMDGDKVKVQLFAKRRGRAPEAAVIEIIEQKQATFVGKIQINRDFAFLVTEDRTLANDIFIPKDNLGNAKNGDKVIVRILEWPEQSKNPIGEVQAVLGPAGDNDAEMNAILAEFGLPYVYPQEVEEAADRLDGKITEEELARREDFRSILTFTIDPKDAKDFDDAISFRPLEDDCYEVGVHIADVSHYVTEGGIIDQEAYNRATSIYLVDRTIPMLPERLCNDLCSLRPDEEKYAYSCIFRMNDEAKVLDYRICHSVIKSDRRFAYEEAQAVIETGEGDCKEAILKLNELAQRLRKERFQNGAIAFERKEVRFEIDEKGRPLGVIVKESKEANKLIEEFMLLANRTVARHIGEETQGKRAKTFVYRIHDLPDPDKLETLSDFIRRFGYKLRTTGSNVEVSKSINSLLDNIQNKPEENLISTVAIRSMAKAIYSTDNIGHYGLAFDFYTHFTSPIRRYPDLMVHRLLTKYLSGGSSVDKNDYEEKCKHSSAMEQLAASAERASIKYKQVEFMSEHLGKVFDGVISGVTEWGLYVELKENMCEGLIPIRCLDDDYYEYDDKNFCLIGRRYRHRYSLGDAITVRVAQANLDRKQLDFEPVSEGHHHHHH,soluble
6,MSLTKHVAVLLAHGFEEAEAVIFIDIMRRLDIRVDILSCEATTALSTYFETPISADALLSDRLDHHYDAVMMPGGPKGTDSLTANPQVIAFLRRHIAQDKYICALCSSGAKVLAAHHLLAGRTYSTGDKLADKFADGVYLDQDVVVDGKFITAKGLGVSFEFAFTVARHLLSDNLPKVEHQASHIYFKHGSAEGHHHHHH,soluble
7,MSLTLISLQTFAAAWEEKLYNPMPDAEDVVLPMPCDGAMVFRKVYIPLAGPLDDYPVNIGGDNAEYGYVEQTHPAFIAGSFTTEKNAKSRYYLLAKYEMTVLQYSALTQAECPAPSNKQRLPVVSLSWMQAMEAADKYNIWLRENAADKLPKEDGVAGFLRLPTEVEWEFAARGGLNVSTAEFRDLRYPMPEGVNAYEWFAGTQSANGQLQLSGLLKPNPLGLHDMLGNVDEMMFEPFRLNKLDRQHGQAGGYVVRGGDFRTAQGELRSSLRKERNYYDAKAAATSKTTGVRLALASSTLTSRERVSSIETSWKEGHHHHHH,not soluble
8,MSLTLSIPPSIQCQTEAACRLITRVTGDTLRAIHLYGSAVAGDLKPNSDIDLLVTICQPLTETQRATLMQELLALSSPPGASAEKRALEVTVVLYSQLVPWCFPPSREMQFGEWLREDIYQGIYEPAQQDWDMVLLITQILETSIPLKGERAERLFTPAPAAQLLKALRYPLDLWQSTADVQGDEYHIVLTLARIWYTLSTGRFTSKDAAADWLLPQLPEEYAATLRAAQREYLGLEQQDWHILLPAVVRFVDFAKAYIPTQFTEGHHHHHH,soluble
9,MSLTLTIEEIAKTKKLLVVSDFDGTIAGFSKDAYNVPINQKSLKAVKDLSQQADTDVVILSGRHLEGLKTVLDLGQYDITMVGSHGSEDSSRPRTLTPEEVARLAKIEADLEKIVDGIEGAFVEIKPFHRVLHFIRVSDKDKVQGILAQAAHVDSSGLKVTNGKSIIEYSISSTTKGTWLKEYVDRTEPTGVIFLGDDTTDEHGFKALENDDRALTVKVGEGDTAAKTRVDDVDNVGIFLEKLAYHRMQYAESVRLGEGHHHHHH,soluble
10,MSLTNKWIGALGLLLSGQLMASELVIESWRADDKALWEQKIIPAFEAANPGIKVKFNPVPNVNYTPTLWENLKAGKAGDLITCRPFDDSLALFKAGHLAEITEMAGMENFPSFAQAPWQTDSGAQTFCVPMASVIHGFFYNKKIFNELGLSVPQTREQFFTVLDKVKADGRYIPLSMSGSESWVASELGYQNIGPNYWKGEDGRLALINGQEHLDDSQYVKVFEELARWRAYLGEDGELRDYGTSNELFTSGKAALYVAGSWEIAPFTDKVDFGVMRPPVAKQGDGCFFTDHTDIGMGMNPASKNPQAAMAFLQWLTTPEFAELYTNSLPGFFSLSNHFFDVTNPAAREMMEWRDQCDSTIRVATQILSRGQPKLGDELAEVSQAVLVGKMTPTAAAERLEQGLKRWYAPHQTRKAKEQECQCVEPISPTTRLNTLPVVDIAPVVASDPVPPTEATILSEEGGSHHHHHH,soluble
11,MSLTPEIPPKNFTPHLPEDYDARISGVLPYYSSFHQETINLVKSLPSSPKIWMDTGCGTGSLINKAIEEFLDTKFLLLDPSESMLEQAKGKLSFYPDGKVEFLKASSTQEFSQELEEKPDVITAIQCHHYLSLEDRSRATRVCYNLLKEGGIYITFENIRPLTEEGVAVGKRYWGKFQSLHGRKEKEIQTHLERFDTEYFPITVEEHLKLLRDTGFRTVELFWYSYMQAGFYCIKEGHHHHHH,soluble
12,MSLTQRIDFQTDPSRYRHWRVAYDGEIANLYMDVDEQGGLFPGYELKLNSYDLGVDIELADIVQRMRFEHPEVKVVVMQSGKDRVFCAGANIRMLGGASHAHKVNFCKFTNETRNTYEAAEADSGQKYIAAVKGACAGGGYELALACNYIMLTNDSSSSVALPEVPLLAVLPGTGGLTRVTDKRKVRRDLADVFCSVEEGVRGQRAVDWRLVDEIAPNSKFDEVVQERAREFASASVKPSGLTGIALTPLDRRFAEDGSVTYSTVEVVVEREAGRATLTISGPTDAAPDTVDALQAQGAEAWILRAARELDDAILHLRLNERRIGTLVIQTQGDGAAVAAHEALLLENRDHWLANEILQHWKRVLKRVDMTSRSLVAIVEHGSCFAGPLAELLWAVDRSYMMLEEGHHHHHH,not soluble
13,MSLTRCVLEGMKTKHALRHHMKLHKGIKEYECKECHRRFAQKVNMLKHCKRHTGIKDFMCELCGKTFSERNTMETHKLIHTVGKQWTCSVCDKKYVTEYMLQKHVQLTHDKVEAQSCQLCGTKVSTRASMSRHMRRKHPEVLAVRIDEGHHHHHH,not soluble
14,MSLTRNRTVALAIIDMQNDFVLPGAPACVEGAMGTVPVIAGLLAKARAEGWMVLHVVRAHRADGSDAEKSREHLFLEGGGLCVAGTPGAEIVAGLEPASGETVLVKTRFSAFMGTECDMLLRRRGVDTLLVSGTQYPNCIRGTAVDAFALDYDVVVVTDACSARTPGVAESNINDMRAMGITCVPLTALDDVLARRPVPSGPPPREGHHHHHH,soluble
15,MSLTSVKEFPTIKAVRSFVIGGVGSGGDYHNVEGGHWLIDSPISTPCSRWEEYRKSRTSWGINVLGSFFVEIEASDGTVGYATGFGGPPACWLTHQHFERFLIGADPRRTNHLFEQMYRASMFYGRKGLPIAVISVIDLALWDLLGKIRKEPVYQMIGGATKDRLNFYCTGPEPTAAREMGFWGAKVPLPYCPDEGHVGMKKNIEFLRKHREAVGPDFPLMVDCYMSLNVSYTIELAEKCKDLDINWWEECLSPDDTDGFEQIKRAHPTLKFTTGEHEYSRFGFRKLVEGRNLDIIQPDVMWLGGLTELLRVSAMAAAYDIPVVPHASGPYSYHFVMSQPNTPFQEYLANSPDGKSVLPVFGDLFLDEIIPSKGFLTPKDLDQPGFGLTLNPAARAKMIPGEFWVNPAPLKALTSGAPAEEKKEGAVEAVVNKVQELTTSEGHHHHHH,soluble
16,MSLTSYSYRQSSATSSFGGLGGGSVRFGPGVAFRAPSIHGGSGGRGVSVSSARFVSSSSSGAYGGGYGGVLTASDGLLAGNEKLTMQNLNDRLASYLDKVRALEAANGELEVKIRDWYQKQGPGPSRDYSHYYTTIQDLRDKILGATIENSRIVLQIDNARLAADDFRTKFETEQALRMSVEADINGLRRVLDELTLARTDLEMQIEGLKEELAYLKKNHEEEISTLRGQVGGQVSVEVDSAPGTDLAKILSDMRSQYEVMAEQNRKDAEAWFTSRTEELNREVAGHTEQLQMSRSEVTDLRRTLQGLEIELQSQLSMKAALEDTLAETEARFGAQLAHIQALISGIEAQLGDVRADSERQNQEYQRLMDIKSRLEQEIATYRSLLEGQEDHYNNLSASKEGHHHHHH,not soluble
